Laboratory results taken from US20040170601A1, “Method of improving the growth performance of an animal” (priority 2001, published 2004).
“Also recorded” adds a separate entry of the source.

Assays:
[1] = tested on: H. parasuis, APP and Swine dysentry; assay: Example 4: deaths and production loss from infectious disease; assay type: in vivo, pigs; settings: for number of deaths during trial: 20 per group; for deaths (autopsy report summary) / production loss (deaths from infectious disease or weight loss): weaner period
Method: This trial evaluated the capacity of IL-5 to improve growth performance and immunity of pigs by comparing the growth rate and health of weaner pigs (28 day old weaners is Day 0 of the trial and the weaner period continued for 42 days) through to the finisher stage (Days 93 to 113) and slaughter (133 days after commencing the trial). The pigs were administered recombinant porcine cytokine, IL-5, and saline was used as a control, with and without standard weaner medicated water and feed in a commercial piggery environment.
40 pigs per treatment mixed in-groups of 20, with 4 replicates containing standard medicated water and feed and 4 replicates without medicated feed or water.
These are possibly a reflection of resistance to infections as all pigs were subjected to a severe exposure of pathogens (deaths occurred from H. parasuis “Glasser's”, APP and Swine dysentry).
The production loss in terms of deaths from infectious disease or weight loss as measured by weekly weighing is shown in FIG. 13. No deaths occurred in the IL-5 medicated group (FIG. 13), a factor that influenced the positive effect of IL-5 on increasing total group weight as described above (FIG. 10). The majority of deaths also included prior weight loss, but were recorded as deaths only. The antibiotic medicated groups had reduced numbers of pigs that lost weight during 1 or more weeks during the weaner period compared to the un-medicated groups. The first week after weaning was where the majority (>80%) of pigs lost weight.

[2] = tested on: eosinophils; assay: Example 3: mode of administration of IL-5 (protein or DNA) on eosinophils; assay type: in vivo, pigs; settings: six times over 2 weeks
Method: This trial compared the delivery of IL-5 as recombinant protein or by DNA using different routes of administration. Each treatment was administered six times over 2 weeks (Days 0, 1, 3, 6, 8, 10).
6 pigs/treatment group. Blood haematology measured.
The experiment was conducted using medicated feed Barastoc EziWean 150 then Bunge Grolean CREEP ad libitum in an experimental environment (PC2 containment facilities).
Blood total and differential counts were performed using a CellDyn 3700 haematology machine.

[3] = tested on: eosinophils; assay: Example 5: haematology, eosinophil levels; parameters: species or system pigs; settings: pig, in vivo
Method: Pigs were weaned and weighted at the start of the experiment (D0, W0) and weekly until the end of the weaner period (W6), at the end of the grower (W13) and finisher (W19) stages and once during the grower (W9) and finisher (W16) stages. Blood and sera samples were collected at the start (before treatments) and end of the weaner, grower and finisher periods. Blood and sera were taken prior to treatment injection. Haematology (totals and differentials) was performed.
Haematology and differentials were undertaken at various time points during the trial. There were no significant changes between groups for these parameters except for eosinophil levels (FIG. 41).

[4] = tested on: Brachyspira (Serpulina) hyodysenteriae; assay: Example 7: swine dysentery challenge, IL-5 prophylactic; assay type: in vivo, pigs; parameters: reduction in the number of spirochaetes compared to saline treated pigs: concentration or dose not given beside the values
From the text: One aim of this example was to determine whether IL-5 could improve the health of pigs infected with an enteric inflammatory pathogen causing swine dysentery, Brachyspira (Serpulina) hyodysenteriae. A further aim was to determine whether IL-5 could improve the growth rate of pigs under conditions of challenge with swine dysentery.
Male pigs with a mean starting weight of 6.5 kg, were allocated to treatment groups consisting of eight pigs (Table 6). Pigs were housed in group pens, with each pen containing a replicate from each of the treatment groups. One group of 8 pigs was housed in a separate room and left uninfected to act as untreated controls. Pigs were provided with pelleted feed and water ad libitum.
Prior to swine dysentery challenge, pigs were treated with recombinant IL-5 or saline, as described in Table 6. Cytokines and the antibiotic, Lincomycin, were delivered by intramuscular injection at intervals outlined in Table 7. Pigs were infected with Brachyspira hyodysenteriae at day 0, day 1 and day 2, given as an oral bolus of 120 ml of spirochaete culture in log phase of growth, containing approximately […].
Faecal swabs and blood samples were taken from each pig at intervals described in Table 7. Faecal swabs were cultured for the presence of spirochaetes. Blood samples were assayed for immunological parameters as described in example 1 above. Pigs were weighed at weekly intervals throughout the experiment, which was terminated by euthanasia on days 19 and 20 after the initial challenge. At post mortem swabs from areas of the hindgut were cultured for the presence of spirochaetes, and the gross pathological condition of the gastro-intestinal tissue noted.

[5] = tested on: haemorrhagic E. coli; assay: Example 6: haemorrhagic E. coli challenge of weaner pigs; assay type: in vivo; parameters: decrease in faecal shedding (total faecal culture scores) compared to saline treated controls / reduction in clinical signs compared to saline controls / reduction in E. coli culture scores at post-mortem compared to saline controls / reduction of bacterial load in the small intestine (foregut) compared with saline controls: concentration or dose not given beside the values
Method: Male weaner pigs, with a mean weight of 5.4 kg were allocated to groups of 8, with the mean weight being equalised between groups. Pigs were housed in group pens. Pigs were provided with pelleted feed and water ad libitum.
Pigs were treated with cytokines or the antibiotic, Apralan, and challenged with E. coli according to the schedule outlined in FIG. 42. E. coli were delivered orally in an 8 ml dose containing 10^8 cfu/ml. Blood was sampled from pigs by venipuncture at −2 days, day 0, and +6 days from initial challenge with E. coli as outlined in FIG. 42. Blood was assayed for immunological parameters as previously described. Pigs were weighed at day −2 and at the end of the trial on day 7.
Faecal samples were taken from each pig daily from day 2 to day 6 after challenge; these samples were cultured on sheep blood agar to quantify E. coli load. The condition of faeces on each day of challenge was noted as normal, wet or diarrhoea, as an indication of clinical signs.
At the conclusion of the experiment, pigs were euthanased and samples were taken from different areas in the gastro-intestinal tract, including the small intestine (25%, 50% and 75% along the length of the small intestine), the caecum and colon, and from the faeces. These post-mortem samples were also plated out on sheep blood agar to quantify E. coli load. Growth on sheep blood agar was scored from 0 to 5 (where 0 was no growth, 1 signified growth in the primary inoculum, 2 signified growth in the first streak, 3 signified growth in the 2nd streak, 4 signified growth in the 3rd streak, and 5 signified growth of E. coli in the final streak), and group means and standard errors were calculated.

B1: interleukin 5 (protein, UniProt Q9MYM5 22-134, looked up)
Interleukin-5: VENTMNRLVAETLTLLSIHRTLLIGDGNLMISTPVHTNHQLCIEEVFQGIDTLKNQTARGDAVEKLFQNLSLIKEYIDRQKKNCGGERWRVTQFLDYLQVFLGVINTEWTMES
notes: recombinant porcine IL-5 protein expressed in E. coli; + / − = with / without antibiotic medicated feed and water, +p = weaner period only
number of deaths during trial ([1]; Final (Day 133), medicated): 0 | number of deaths during trial ([1]; Final (Day 133), un-medicated): 3 | number of deaths during trial ([1]; Weaner (Day 42), medicated): 0 | number of deaths during trial ([1]; Weaner (Day 42), un-medicated): 2 | condition and health of pigs ([1]; medicated): excellent condition and health compared to other groups | deaths (autopsy report summary) ([1]; medicated): No deaths or intervention | production loss (deaths from infectious disease or weight loss) ([1]; medicated): no pig from the medicated IL-5 treatment group lost weight or died from infectious disease | production loss (deaths from infectious disease or weight loss) ([1]; un-medicated): reduced production loss | deaths (autopsy report summary) ([1]; unmedicated): 2x H. parasuis | circulating eosinophil numbers (percentage of WBC) ([2]; 100 μg rec.IL-5 IM hind leg, listed as Recombinant IL-5): elevated circulating eosinophil numbers | circulating eosinophil numbers (percentage of WBC) ([2]; 100 μg rec.IL-5 IM hind leg, listed as recombinant IL-5): increase in the duration and level of eosinophils in blood | circulating eosinophil numbers (percentage of WBC) ([2]; 100 μg rec.IL-5 intranasal spray): slight increases on eosinophil numbers compared to the DNA control but not statistically significant | levels of eosinophils in blood (absolute numbers and differentials) [3]: significantly increased the levels of eosinophils in blood | spirochaete shedding in faeces (faecal culture) ([4]; after challenge): decreasing levels of spirochaete shedding by day 14 after challenge | reduction in the number of spirochaetes compared to saline treated pigs ([4]; anterior colon, post mortem): 63% | reduction in the number of spirochaetes compared to saline treated pigs ([4]; caecum, post mortem): 60% | reduction in the number of spirochaetes compared to saline treated pigs ([4]; faecal, post mortem): 68% | number of spirochaetes cultured from the hindgut at post mortem ([4]; pig, in vivo): reduced the number of spirochaetes residing in the gut compared to saline controls; also recorded: comparable to that shown by the Lincocin antibiotic | incidence of clinical signs in faeces (of 8 pigs) ([4]; post mortem): 3 pigs | reduction in the number of spirochaetes compared to saline treated pigs ([4]; posterior colon, post mortem): 47% | clinical signs (wet faeces or diarrhoea) ([5]; 5 days after challenge): fewer recorded cases of wet faeces and diarrhoea than saline controls or Apralan treatment | E. coli shedding in faeces (faecal culture) ([5]; day 2 to day 6 after challenge): decreased E. coli shedding in faeces | decrease in faecal shedding (total faecal culture scores) compared to saline treated controls ([5]; entire challenge period): 43% | reduction in E. coli culture scores at post-mortem compared to saline controls ([5]; gastro-intestinal tract total): 15% | appetite (daily feed intake per pig) during E. coli challenge ([5]; pig, in vivo): improved appetite compared to saline treated pigs | bacterial load in areas of the gastro-intestinal tract at post-mortem ([5]; pig, in vivo): reduced bacterial load in most areas of the gastro-intestinal tract | days after challenge with bacterial shedding significantly less than saline treated controls ([5]; pig, in vivo): 3/5 | group mean total E. coli culture score at post-mortem (out of a possible 30) ([5]; pig, in vivo): less than 15 | reduction in clinical signs compared to saline controls ([5]; pig, in vivo): 64% | reduction of bacterial load in the small intestine (foregut) compared with saline controls ([5]; post-mortem): 36%
